From publication PMC4403821 come the findings set out here.

For test [1], the target named is ORF74-ST/A (Kaposi's sarcoma-associated herpesvirus (KSHV)) (UniProt Q98146).
The target is the same in test [2]. The test is described as follows: radioligand binding; whole transfected HEK293T cells, 100 pM ^125I-CXCL10 with increasing unlabeled CXCL10, 3h at 4°C, 50 mM HEPES pH 7.4, 1 mM CaCl2, 5 mM MgCl2, 0.5% BSA; washes with 0.5 M NaCl; Ki from IC50 by Cheng and Prusoff.
A further test addresses ^125I-CXCL8. The test is described as follows: radioligand binding (125I-CXCL8 homologous competition) on intact HEK293T cells. The following applies: point at the lowest unlabeled CXCL8 concentration, log [CXCL8] = -11 M; parent: est. 100; read off a plot.

As to CXCL8 (ligand), in test [1], the PLC activation (InsP accumulation) in HEK293T, pEC50 was above 7. “CXCL10 (from UniProt P02778 22-98) (ligand)”: in test [1], the inhibition of constitutive PLC activation (InsP accumulation) in HEK293T, pEC50 came to 8. Also, the pKi – broadly, the Ki on a negative log10 scale, so that one unit is a factor of ten – in test [2] amounted to 8.4. With “WT-ORF74 (from UniProt Q98146) S315A; S319A; S331A; S335A; S338A; T341A; T342A”, the percent of parent (% of specific binding of WT-ORF74) with ^125I-CXCL8 came to 3.
